Data on 167 variants can be found in the Human Domainome abundance scans (Beltran et al. 2025).

Sequences and labels used below:
B1: Peroxisome proliferator-activated receptor delta, residues 71 to 145; numbered along this chain, Q03181 (parent)
chain: NMECRVCGDKASGFHYGVHACEGCKGFFRRTIRMKLEYEKCERSCKIQKKNRNKCQYCRFQKCLALGMSHNAIRF

± gives the uncertainty stated by the source.

The variants in the data set derive from B1. Kind of data set: abundance fitness (aPCA) (normalised: wild type 0, dead -1); higher = more abundant; growth selection in yeast, the domain comes from the species named. The note with it: Homo sapiens.
Take H19P: the abundance fitness was -0.028 ± 0.042.

On to H19V, for which the abundance fitness is -0.083 ± 0.046.

On to H19K, for which the abundance fitness was -0.047 ± 0.056.

For the variant L66N, the abundance fitness is -0.014 ± 0.073.

As for L66K, the abundance fitness is -0.018 ± 0.05.

L66E: the abundance fitness came to 0.067 ± 0.046.

On to L66D, for which the abundance fitness was -0.521 ± 0.12.

C21M: the abundance fitness is -0.912 ± 0.26.

Regarding C21P, the abundance fitness is -1.14 ± 0.26.

Regarding C21K, the abundance fitness is -0.597 ± 0.12.

Take T31G: the abundance fitness is -0.717 ± 0.085.

With T31I, the abundance fitness was -0.49 ± 0.22.

On to T31F, for which the abundance fitness is -0.406 ± 0.15.

On to T31R, for which the abundance fitness is -0.778 ± 0.072.

As to I32Y, the abundance fitness was -0.133 ± 0.082.

I32E: the abundance fitness is -0.531 ± 0.12.

Consider I32P, for which the abundance fitness was -0.869 ± 0.14.

For the variant I32T, the abundance fitness was -0.107 ± 0.054.

As for A65C, the abundance fitness was -0.295 ± 0.083.

Regarding A65V, the abundance fitness is -0.075 ± 0.043.

As to A65T, the abundance fitness is -0.073 ± 0.051.

On to A65N, for which the abundance fitness is -0.026 ± 0.064.

For A65K, the abundance fitness is -0.073 ± 0.048.

Take A65E: the abundance fitness is -0.003 ± 0.042.

A65G: the abundance fitness is -0.185 ± 0.035.

Take A65W: the abundance fitness is -0.231 ± 0.049.

For the variant V6W, the abundance fitness is -0.934 ± 0.14.

As to V6M, the abundance fitness is -0.674 ± 0.12.

For the variant V6A, the abundance fitness is -0.619 ± 0.07.

With V6H, the abundance fitness was -0.914 ± 0.32.

Consider V6R, for which the abundance fitness was -0.839 ± 0.072.

On to V6E, for which the abundance fitness was -0.561 ± 0.11.

Consider V6F, for which the abundance fitness was -0.547 ± 0.14.

As for F27M, the abundance fitness is -1.02 ± 0.27.

On to F27A, for which the abundance fitness is -0.934 ± 0.12.

For the variant F27I, the abundance fitness is -0.994 ± 0.23.

As to F27G, the abundance fitness was -0.789 ± 0.076.

With F27W, the abundance fitness is -0.787 ± 0.094.

For the variant F27E, the abundance fitness is -0.85 ± 0.13.

Regarding E39N, the abundance fitness is -0.222 ± 0.075.

For E39T, the abundance fitness was -0.052 ± 0.045.

Take E39K: the abundance fitness is 0.017 ± 0.057.

Consider E39M, for which the abundance fitness was -0.167 ± 0.057.

For the variant E39C, the abundance fitness is -0.586 ± 0.13.

With E39Y, the abundance fitness was -0.447 ± 0.1.

M34D: the abundance fitness was found to be 0.192 ± 0.054.

Consider M34A, for which the abundance fitness is -0.112 ± 0.049.

In the case of M34I, the abundance fitness is -0.817 ± 0.22.

In the case of M34K, the abundance fitness was -0.074 ± 0.06.

M34V: the abundance fitness was -0.577 ± 0.082.

Take M34R: the abundance fitness is -0.161 ± 0.042.

As to Y16D, the abundance fitness was 0.126 ± 0.056.

Y16M: the abundance fitness is -0.171 ± 0.057.

Take Y16V: the abundance fitness is -0.281 ± 0.049.

As to Y16Q, the abundance fitness was -0.034 ± 0.057.

Turning to Y16H, the abundance fitness is -0.13 ± 0.071.

For the variant Q61N, the abundance fitness was -0.359 ± 0.095.

Q61A: the abundance fitness is -0.069 ± 0.039.

As to Q61Y, the abundance fitness is -0.227 ± 0.12.

In the case of Q61I, the abundance fitness is -0.254 ± 0.1.

On to Q61V, for which the abundance fitness was -0.243 ± 0.039.

With D9M, the abundance fitness is -0.436 ± 0.086.

In the case of D9L, the abundance fitness was -0.63 ± 0.072.

As for D9I, the abundance fitness is -0.345 ± 0.12.

As to D9N, the abundance fitness is -0.152 ± 0.064.

For D9H, the abundance fitness was -0.668 ± 0.2.

Regarding D9W, the abundance fitness was -0.618 ± 0.097.

Turning to D9C, the abundance fitness is -0.305 ± 0.075.

With D9Q, the abundance fitness is -0.374 ± 0.077.

For K46E, the abundance fitness was 0.124 ± 0.04.

As to K46Q, the abundance fitness amounted to 0.106 ± 0.047.

In the case of K46R, the abundance fitness was -0.037 ± 0.029.

Regarding K46A, the abundance fitness came to 0.007 ± 0.034.

As for L36F, the abundance fitness is -0.162 ± 0.091.

As to L36T, the abundance fitness was -0.139 ± 0.053.

On to L36Q, for which the abundance fitness was -0.222 ± 0.059.

In the case of F60W, the abundance fitness is -0.003 ± 0.047.

In the case of F60S, the abundance fitness was -0.557 ± 0.09.

Turning to F60P, the abundance fitness is -0.802 ± 0.11.

With K49A, the abundance fitness amounted to 0 ± 0.15.

As to K49W, the abundance fitness was found to be 0.006 ± 0.16.

For K40N, the abundance fitness was -0.225 ± 0.093.

Turning to E37K, the abundance fitness was -0.038 ± 0.051.

Take E37R: the abundance fitness was -0.069 ± 0.034.

As to E37V, the abundance fitness was -0.042 ± 0.035.

As to E37F, the abundance fitness was -0.227 ± 0.092.

Turning to E37L, the abundance fitness is -0.16 ± 0.045.

E37D: the abundance fitness is -0.034 ± 0.059.

Consider Y57S, for which the abundance fitness was -0.35 ± 0.061.

For the variant Y57I, the abundance fitness was -0.919 ± 0.36.

Turning to Y57P, the abundance fitness is -0.961 ± 0.18.

Turning to Y57W, the abundance fitness is -0.125 ± 0.054.

As for Y57K, the abundance fitness is -0.507 ± 0.1.

For the variant L64S, the abundance fitness was -0.648 ± 0.089.

L64T: the abundance fitness is -0.288 ± 0.065.

In the case of R74P, the abundance fitness is 0.151 ± 0.047.

As to R74S, the abundance fitness is 0.093 ± 0.046.

With R74I, the abundance fitness stood at 0.001 ± 0.11.

As to R30H, the abundance fitness was -0.067 ± 0.065.

Take R30I: the abundance fitness was -0.31 ± 0.1.

Consider R30K, for which the abundance fitness is -0.07 ± 0.081.

For G8T, the abundance fitness was -0.447 ± 0.068.

Take G8W: the abundance fitness was -0.812 ± 0.13.

Regarding G8K, the abundance fitness is -0.563 ± 0.1.

Turning to G8H, the abundance fitness is -0.064 ± 0.087.

In the case of G8Y, the abundance fitness is -0.438 ± 0.15.

Take G8C: the abundance fitness is -0.582 ± 0.095.

Regarding Q56F, the abundance fitness is -0.079 ± 0.096.

As to K50A, the abundance fitness is 0.06 ± 0.036.

With K50Q, the abundance fitness came to 0.077 ± 0.056.

For the variant K50N, the abundance fitness was 0.147 ± 0.085.

In the case of K50E, the abundance fitness stood at 0.111 ± 0.045.

With K50S, the abundance fitness is -0.046 ± 0.048.

Take K50F: the abundance fitness turned out to be 0.07 ± 0.17.

Turning to E22N, the abundance fitness is -0.207 ± 0.09.

As to E22K, the abundance fitness is -0.297 ± 0.065.

In the case of E22Q, the abundance fitness was -0.332 ± 0.079.

In the case of E22T, the abundance fitness was -0.282 ± 0.056.

E22H: the abundance fitness is -0.385 ± 0.099.

Regarding E22M, the abundance fitness was -0.205 ± 0.062.

As for E22V, the abundance fitness is -0.325 ± 0.055.

Take R5Y: the abundance fitness is -0.085 ± 0.088.

Take R5C: the abundance fitness is -0.13 ± 0.063.

Turning to R5H, the abundance fitness is -0.257 ± 0.1.

Take R5K: the abundance fitness is 0.139 ± 0.05.

Consider R5Q, for which the abundance fitness stood at 0.113 ± 0.047.

Take R5S: the abundance fitness is 0.034 ± 0.038.

For R5M, the abundance fitness came out at 0.067 ± 0.048.

As to R5G, the abundance fitness was -0.045 ± 0.031.

For the variant A20W, the abundance fitness is -0.534 ± 0.11.

With A20N, the abundance fitness was -0.222 ± 0.17.

Regarding A20C, the abundance fitness is 0.139 ± 0.06.

In the case of G26P, the abundance fitness is -1.02 ± 0.18.

With G26A, the abundance fitness stood at 0.068 ± 0.04.

For G26Y, the abundance fitness was 0.084 ± 0.06.

With G26T, the abundance fitness is 0.039 ± 0.047.

Turning to G26D, the abundance fitness was 0.114 ± 0.056.

Regarding I47R, the abundance fitness was -0.502 ± 0.034.

Regarding I47K, the abundance fitness is -0.453 ± 0.061.

As to I47V, the abundance fitness stood at 0.004 ± 0.027.

Take I47T: the abundance fitness is -0.253 ± 0.048.

I47S: the abundance fitness is -0.287 ± 0.038.

In the case of N71E, the abundance fitness turned out to be 0.142 ± 0.048.

Turning to N71A, the abundance fitness was -0.036 ± 0.045.

For the variant N71K, the abundance fitness is -0.127 ± 0.051.

Regarding N71V, the abundance fitness is -0.31 ± 0.046.

Consider C4G, for which the abundance fitness was -0.911 ± 0.12.

With C4Q, the abundance fitness is -0.738 ± 0.12.

For the variant C4S, the abundance fitness was -0.669 ± 0.082.

Turning to C4T, the abundance fitness is -0.962 ± 0.15.

For the variant S12V, the abundance fitness is -0.222 ± 0.045.

Consider S12C, for which the abundance fitness is -0.103 ± 0.069.

With A11V, the abundance fitness was -0.306 ± 0.05.

Turning to A11G, the abundance fitness was -0.232 ± 0.036.

As for A11H, the abundance fitness is -0.218 ± 0.1.

Turning to A11P, the abundance fitness was -0.197 ± 0.065.

For the variant A11M, the abundance fitness was -0.337 ± 0.069.

C24D: the abundance fitness is -0.306 ± 0.11.

As for C24A, the abundance fitness was -0.626 ± 0.13.

With C24M, the abundance fitness is -0.648 ± 0.14.

With C24Y, the abundance fitness is -0.747 ± 0.22.

Turning to G23N, the abundance fitness turned out to be 0.109 ± 0.078.

In the case of G23C, the abundance fitness was determined as 0.071 ± 0.053.

Turning to G23I, the abundance fitness is -0.244 ± 0.098.

Consider G23V, for which the abundance fitness is -0.325 ± 0.052.

G23E: the abundance fitness is 0.17 ± 0.04.

In the case of H15D, the abundance fitness was -0.027 ± 0.05.
